Data set [1] concerns the target T1, SiARDP (Setaria italica, UniProt K3Z7V1 1-332). Nature of the data set: EMSA; LightShift Chemiluminescent EMSA Kit (Thermo), manufacturer's protocol; buffer, salt, pH and temperature not stated. Conditions: protein: recombinant; label: biotin. (A gel shift assay detects complexes by their altered migration in electrophoresis.)
The target of data set [2] is T2, SiAREB1 (Setaria italica, UniProt K3YTM2 1-357).
T2 sequence: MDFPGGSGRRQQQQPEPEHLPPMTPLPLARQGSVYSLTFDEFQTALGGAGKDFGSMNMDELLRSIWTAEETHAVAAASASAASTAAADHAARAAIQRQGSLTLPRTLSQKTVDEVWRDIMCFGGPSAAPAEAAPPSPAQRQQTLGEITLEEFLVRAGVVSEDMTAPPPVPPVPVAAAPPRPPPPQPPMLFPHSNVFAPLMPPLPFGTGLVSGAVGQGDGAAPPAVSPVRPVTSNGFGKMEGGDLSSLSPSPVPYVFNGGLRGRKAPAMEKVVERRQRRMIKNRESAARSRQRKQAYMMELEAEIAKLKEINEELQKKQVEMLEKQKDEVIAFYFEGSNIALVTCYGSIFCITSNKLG
The description is as above. Conditions: protein: recombinant; chain copies: 2; label: biotin.

Data set [3] addresses T1, SiARDP. Nature of the data set: competition; versus labeled P2; signal not obviously reduced; LightShift Chemiluminescent EMSA Kit (Thermo), manufacturer's protocol; buffer, salt, pH and temperature not stated. To be noted: protein: recombinant.
Data set [4] addresses T1, SiARDP. In words: competition; versus labeled P1; LightShift Chemiluminescent EMSA Kit (Thermo), manufacturer's protocol; buffer, salt, pH and temperature not stated. To be noted: protein: recombinant.
Data set [5] deals with T1, SiARDP. Nature of the data set: competition; versus labeled P1; signal not obviously reduced; LightShift Chemiluminescent EMSA Kit (Thermo), manufacturer's protocol; buffer, salt, pH and temperature not stated. Conditions: protein: recombinant.
The target in data set [6] is T1, SiARDP. Nature of the data set: competition; versus labeled P2; LightShift Chemiluminescent EMSA Kit (Thermo), manufacturer's protocol; buffer, salt, pH and temperature not stated. Conditions: protein: recombinant.

Numbering of substitutions follows the chain as printed.

T1 sequence (K3Z7V1 entry or part of it): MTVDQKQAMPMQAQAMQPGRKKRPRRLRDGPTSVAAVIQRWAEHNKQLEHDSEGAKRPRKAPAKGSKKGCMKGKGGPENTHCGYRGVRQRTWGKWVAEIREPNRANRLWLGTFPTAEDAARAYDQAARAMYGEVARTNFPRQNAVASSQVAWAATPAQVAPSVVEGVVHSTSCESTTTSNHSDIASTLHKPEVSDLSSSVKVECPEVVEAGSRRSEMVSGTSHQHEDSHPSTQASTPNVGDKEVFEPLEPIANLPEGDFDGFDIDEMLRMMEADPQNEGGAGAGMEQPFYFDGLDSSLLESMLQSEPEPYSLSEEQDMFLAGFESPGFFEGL

B1: probe P1 (DRE1) (dsDNA)
DNA 1: GCGATGGTCCTCACCGACGACGCCGCCCGC
DNA 2: GCGGGCGGCGTCGTCGGTGAGGACCATCGC
Turning to B1, the binding result in data set [1] is given as “binds”; in data set [2], “no binding”.

B2: competitor 4 (mutant DRE2, GCCGAC to GAAAAA) (dsDNA)
DNA 1: ATGGGTTCCTTGAAAAATCTTCTTTTAACC
DNA 2: GGTTAAAAGAAGATTTTTCAAGGAACCCAT
In the case of B2, the binding result in data set [3] was “no binding”.

B3: probe P3 (ABRE) (dsDNA)
DNA 1: GCCGCGCGGGTACGTGCGAGCCCCGCGGTC
DNA 2: GACCGCGGGGCTCGCACGTACCCGCGCGGC
B3: the binding result in data set [1] and in data set [2] was “no binding” in each case.

B4: competitor 1 (DRE1) (dsDNA)
DNA 1: B1 DNA 1
DNA 2: B1 DNA 2
Turning to B4, the binding result in data set [4] is listed as “binds”.

B5: competitor 2 (mutant DRE1, ACCGAC to AAAAAC) (dsDNA)
DNA 1: B1 DNA 1 with C14A, C15A, G16A
DNA 2: B1 DNA 2 with C15T, G16T, G17T
B5: in data set [5], the binding result is reported as “no binding”.

B6: competitor 3 (DRE2) (dsDNA)
DNA 1: ATGGGTTCCTTGCCGACTCTTCTTTTAACC
DNA 2: GGTTAAAAGAAGAGTCGGCAAGGAACCCAT
B6: the binding result in data set [6] was “binds”.

B7: probe P2 (DRE2) (dsDNA)
DNA 1: B6 DNA 1
DNA 2: B6 DNA 2
As for B7, the binding result in data set [2] is recorded as “no binding”.

Source of the values: paper PMC4072699, “A Remorin Gene SiREM6, the Target Gene of SiARDP, from Foxtail Millet (Setaria italica) Promotes High Salt Tolerance in Transgenic Arabidopsis”.
